Here are results for eight substances from article doi:10.1101/2022.01.13.476208.

The Kd is a measure of binding affinity in units of concentration.

Assay [1] has as its target Wild-type GPIbα, residues 1-290, with Avi-tag, biotinylated. Nature of the assay: BLI. For orientation: BLI is a label-free optical method that tracks binding on a fibre tip over time.
For assay [2], the target named is A1 short (human) (UniProt P04275). In words: ITC. In general terms: Isothermal titration calorimetry measures the heat released or taken up as one component is titrated into another.

Regarding “A1+OGly+N (from UniProt P04275 1238-1469) (domain or fragment)”, in assay [1], the fold lower affinity than A1+N turned out to be 10 fold and the fold lower affinity than A1 without linkers was determined as 51 fold. With “A1+C (from UniProt P04275 1264-1486) (domain or fragment)”, in assay [1], the fold lower affinity than A1 short was determined as 2.5 fold. In assay [1], “A1+OGly+N+C (from UniProt P04275 1238-1489) (domain or fragment)” returned a Kd of 9.2 µM, a fold increase in affinity in 10 mM against 150 mM NaCl of 20 fold, a fold increase in kon in 10 mM against 150 mM NaCl of 7 fold and a fold lower affinity than with the O-glycosylated N-linker alone of 1.2 fold. Regarding “A1+N (from UniProt P04275 1238-1469) (domain or fragment)”, in assay [1], the fold lower affinity than A1 short was determined as 4.3 fold. “A1 short (from UniProt P04275 1264-1469) (domain or fragment)” displayed a Kd in assay [1] of 0.18 µM.

Consider “A1+OGly+C (from UniProt P04275 1264-1489) (domain or fragment)”, for which, in assay [1], the fold lower affinity than A1+C turned out to be 2 fold and the fold lower affinity than A1 without linkers was 6 fold. In assay [2], “Wild-type GPIbα, residues 1-290, without Avi-tag (domain or fragment)” displayed a fold higher affinity than A1+OGly+N+C of 39 fold. “A1+N+C (from UniProt P04275 1238-1486) (domain or fragment)” yielded a fold lower affinity than A1 short in assay [1] of 10 fold.
